Test results: US20130324474A1 (Eli Lilly, published 2013)

T1: Recombinant Human GFRα-1/GDNF Rα-1 Fc Chimera (human, UniProt P56159 25-429)
T1 construct: Purchased Fc chimera; It was captured on protein A in Biacore and coated on the plate in ELISA; also called GFRα1-Fc; recombinant human GFRα1-Fc chimera, carrier-free; not shown: Fc part of a purchased Fc chimera
T1 sequence (looked up): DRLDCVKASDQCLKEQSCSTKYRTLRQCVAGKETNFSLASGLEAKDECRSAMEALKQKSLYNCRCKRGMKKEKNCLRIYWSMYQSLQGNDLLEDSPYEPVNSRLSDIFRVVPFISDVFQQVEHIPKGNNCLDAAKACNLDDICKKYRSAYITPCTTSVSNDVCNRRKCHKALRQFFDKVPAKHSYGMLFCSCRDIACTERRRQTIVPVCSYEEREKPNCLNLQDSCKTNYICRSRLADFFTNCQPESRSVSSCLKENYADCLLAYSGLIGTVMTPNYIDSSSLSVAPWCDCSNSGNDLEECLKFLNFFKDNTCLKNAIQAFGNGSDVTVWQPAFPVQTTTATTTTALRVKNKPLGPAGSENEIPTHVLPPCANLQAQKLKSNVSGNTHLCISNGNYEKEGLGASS

T2: Recombinant Human GFRα-2/GDNF Rα-2 Fc Chimera (human, UniProt O00451 22-441)
T2 construct: Purchased Fc chimera; not shown: Fc part of a purchased Fc chimera
T2 sequence (looked up): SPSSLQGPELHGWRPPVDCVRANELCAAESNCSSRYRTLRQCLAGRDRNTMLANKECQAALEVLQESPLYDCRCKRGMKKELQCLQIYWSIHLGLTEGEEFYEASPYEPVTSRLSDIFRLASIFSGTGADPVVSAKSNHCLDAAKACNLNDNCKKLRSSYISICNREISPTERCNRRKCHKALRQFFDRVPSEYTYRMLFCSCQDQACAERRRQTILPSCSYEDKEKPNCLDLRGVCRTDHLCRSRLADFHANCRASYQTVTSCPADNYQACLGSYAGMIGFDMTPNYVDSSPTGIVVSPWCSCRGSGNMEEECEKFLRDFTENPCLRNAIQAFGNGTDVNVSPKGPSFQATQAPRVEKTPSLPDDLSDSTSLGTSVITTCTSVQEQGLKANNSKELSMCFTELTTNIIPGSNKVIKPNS

T3: Recombinant Rat GFRα-1/GDNF Rα-1 Fc Chimera (rat, UniProt Q62997 25-445)
T3 construct: Purchased Fc chimera; not shown: Fc part of a purchased Fc chimera
T3 sequence (looked up): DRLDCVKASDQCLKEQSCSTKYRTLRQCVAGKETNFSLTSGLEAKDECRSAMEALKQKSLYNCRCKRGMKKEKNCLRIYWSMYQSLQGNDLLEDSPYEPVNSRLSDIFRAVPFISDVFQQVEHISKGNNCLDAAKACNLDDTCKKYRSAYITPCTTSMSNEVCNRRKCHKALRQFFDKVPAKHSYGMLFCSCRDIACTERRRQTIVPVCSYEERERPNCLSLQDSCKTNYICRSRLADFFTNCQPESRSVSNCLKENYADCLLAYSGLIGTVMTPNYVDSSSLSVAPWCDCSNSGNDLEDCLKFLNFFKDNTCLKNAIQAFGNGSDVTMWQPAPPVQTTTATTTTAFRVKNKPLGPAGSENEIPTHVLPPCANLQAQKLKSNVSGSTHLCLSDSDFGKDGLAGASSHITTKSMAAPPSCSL


Tests used:
[1] = target: T1, Recombinant Human GFRα-1/GDNF Rα-1 Fc …; test: SPR (Biacore 2000), GFRα1-Fc captured on protein A, GDNFv as analyte, 1:1 Langmuir, 25 C
Experimental: (§1) A Biacore® 2000 instrument is used to measure the binding kinetics of GDNFv to human and rat GDNF family receptors (GFRα1 and GFRα2). Measurements are performed at 25° C. Samples are dissolved in HBS-EP buffer (150 mM sodium chloride, 3 mM EDTA, 0.005% (w/v) surfactant P-20, pH 7.4). Protein A, Staphylococcus aureus is immobilized on flow cells 1 to 4 of a CM4 sensor chip (GE Healthcare #BR-1005-39) at a level of ˜200 response units (RUs) using amine coupling chemistry to capture GFR Fc chimera (Recombinant Human GFRα-1/GDNF Rα-1 Fc Chimera; Recombinant Human GFRα-2/GDNF Rα-2 Fc Chimera; Recombinant Rat GFRα-1/GDNF Rα-1 Fc Chimera; Recombinant Mouse GFRα-2/GDNF Rα-2 Fc Chimera).
(§2) Binding is evaluated using multiple cycles. Each cycle consists of the following steps: 1) injection of about 10 μL of GFR at a concentration of ˜1.0 μg/mL and a flow rate of 10 μL/min., aiming at a capture of 120-150 RUs; 2) injection of 250 μL of GDNFv at a flow rate of 50 μL/min., in a final concentration rage between 10 nM and 0.04 nM followed by […]. for dissociation; and 3) regeneration using about 30 μL of 10 mM glycine hydrochloride, pH 1.5. Association and dissociation rates for each cycle are evaluated using a “1:1 (Langmuir) binding” model in the BIAevaluation software, version 4.1.

[2] = target: T2, Recombinant Human GFRα-2/GDNF Rα-2 Fc …; test: SPR (Biacore 2000), human GFRα2-Fc captured on protein A, GDNFv as analyte, 1:1 Langmuir, 25 C
Experimental: as §1, §2

[3] = target: T1, Recombinant Human GFRα-1/GDNF Rα-1 Fc …; test: Biacore (SPR), GFRα-1; 4 C sample of the 4-week stability comparison
human c-Ret = human c-Ret (human, UniProt P07949 29-1114, phosphorylation at Y1016 is the readout); test: cell-based or functional assay
[4] = target: T3, Recombinant Rat GFRα-1/GDNF Rα-1 Fc …; test: SPR (Biacore 2000), rat GFRα1-Fc captured on protein A, GDNFv as analyte, 1:1 Langmuir, 25 C
Experimental: as §1, §2

[5] = target: T2, Recombinant Human GFRα-2/GDNF Rα-2 Fc …; test: SPR (Biacore 2000), human GFRα2-Fc captured on protein A, GDNF as analyte, 1:1 Langmuir, 25 C
Experimental: as §1, §2

[6] = target: T1, Recombinant Human GFRα-1/GDNF Rα-1 Fc …; test: ELISA, plate-bound human GFRα1-Fc; upper end of the 95% confidence range, n = 8
Experimental: (§3) Each well of a 96-well plate (Greiner 655081 Immunobind ELISA plates) is coated with 70 μl of human GFRα1 (recombinant human GFRα1-Fc chimera, carrier-free) at 1 μg/ml in carbonate buffer, pH 9.6. If an irrelevant receptor is coated, it is an irrelevant Fc chimera and is coated at the same concentration as GFRα1. The plates are sealed and incubated at 4° C. overnight. The wells are aspirated and washed twice with washing buffer (20 mM Tris (hydroxymethyl) aminomethane, pH 7.4, 0.15 M NaCl, 0.1% Tween-20), using an automatic plate washer. The plates are blocked with 200 μl blocking buffer per well (3% Carnation Instant milk in the above washing buffer) for at least 1 hour at room temperature. Plates are washed twice with washing buffer. […]
(§4) A 50 μl aliquot of horseradish peroxidase-conjugated streptavidin (Jackson ImmunoResearch, catalog #016-030-084), diluted 1:1000 in blocking buffer, is added to each well and incubated for 20-30 minutes at room temperature. […] The absorbance of the wells is read at 490 nm on a Molecular Devices SpectraMax250 plate reader. The average absorbance for the triplicate wells for each condition are determined, and the resulting values are processed for EC₅₀ calculation with Graph Pad Prism software to provide a 95% confidence range.

[7] = target: T1, Recombinant Human GFRα-1/GDNF Rα-1 Fc …; test: ELISA, plate-bound human GFRα1-Fc; 4 C sample
Experimental: GDNF wild type and variants are tested in an ELISA assay, in which binding of the GDNF proteins to the plate-bound receptor (GFRα1) is measured. A “no GDNF” condition and/or an “irrelevant protein” condition are used as negative controls.
Each well of a 96-well plate (Greiner 655081 Immunobind ELISA plates) is coated with 70 μl of human GFRα1 (recombinant human GFRα1-Fc chimera, carrier-free) at 1 μg/ml in carbonate buffer, pH 9.6. If an irrelevant receptor is coated, it is an irrelevant Fc chimera and is coated at the same concentration as GFRα1. The plates are sealed and incubated at 4° C. overnight. The wells are aspirated and washed twice with washing buffer (20 mM Tris (hydroxymethyl) aminomethane, pH 7.4, 0.15 M NaCl, 0.1% Tween-20), using an automatic plate washer. The plates are blocked with 200 μl blocking buffer per well (3% Carnation Instant milk in the above washing buffer) for at least 1 hour at room temperature. Plates are washed twice with washing buffer.
GDNF proteins are serially diluted into blocking buffer at an appropriate concentration range, typically beginning at 5 μg/ml and serially diluting 1:10. A no GDNF control is used, which consists of blocking buffer alone. 50 μl of each GDNF solution is added to the GFRα1 coated wells in triplicate. The plates are incubated for 1.5 hours at room temperature. The wells are then washed 3 times with washing buffer.

[8] = target: T1, Recombinant Human GFRα-1/GDNF Rα-1 Fc …; test: SPR (Biacore 2000), GFRα1-Fc captured on protein A, GDNF as analyte, 1:1 Langmuir, 25 C; in the presence of 400 mM NaCl
[9] = target: T1, Recombinant Human GFRα-1/GDNF Rα-1 Fc …; test: ELISA, plate-bound human GFRα1-Fc; lower end of the 95% confidence range, n = 8
Experimental: as §3, §4

Sequence of human c-Ret (P07949 29-1114): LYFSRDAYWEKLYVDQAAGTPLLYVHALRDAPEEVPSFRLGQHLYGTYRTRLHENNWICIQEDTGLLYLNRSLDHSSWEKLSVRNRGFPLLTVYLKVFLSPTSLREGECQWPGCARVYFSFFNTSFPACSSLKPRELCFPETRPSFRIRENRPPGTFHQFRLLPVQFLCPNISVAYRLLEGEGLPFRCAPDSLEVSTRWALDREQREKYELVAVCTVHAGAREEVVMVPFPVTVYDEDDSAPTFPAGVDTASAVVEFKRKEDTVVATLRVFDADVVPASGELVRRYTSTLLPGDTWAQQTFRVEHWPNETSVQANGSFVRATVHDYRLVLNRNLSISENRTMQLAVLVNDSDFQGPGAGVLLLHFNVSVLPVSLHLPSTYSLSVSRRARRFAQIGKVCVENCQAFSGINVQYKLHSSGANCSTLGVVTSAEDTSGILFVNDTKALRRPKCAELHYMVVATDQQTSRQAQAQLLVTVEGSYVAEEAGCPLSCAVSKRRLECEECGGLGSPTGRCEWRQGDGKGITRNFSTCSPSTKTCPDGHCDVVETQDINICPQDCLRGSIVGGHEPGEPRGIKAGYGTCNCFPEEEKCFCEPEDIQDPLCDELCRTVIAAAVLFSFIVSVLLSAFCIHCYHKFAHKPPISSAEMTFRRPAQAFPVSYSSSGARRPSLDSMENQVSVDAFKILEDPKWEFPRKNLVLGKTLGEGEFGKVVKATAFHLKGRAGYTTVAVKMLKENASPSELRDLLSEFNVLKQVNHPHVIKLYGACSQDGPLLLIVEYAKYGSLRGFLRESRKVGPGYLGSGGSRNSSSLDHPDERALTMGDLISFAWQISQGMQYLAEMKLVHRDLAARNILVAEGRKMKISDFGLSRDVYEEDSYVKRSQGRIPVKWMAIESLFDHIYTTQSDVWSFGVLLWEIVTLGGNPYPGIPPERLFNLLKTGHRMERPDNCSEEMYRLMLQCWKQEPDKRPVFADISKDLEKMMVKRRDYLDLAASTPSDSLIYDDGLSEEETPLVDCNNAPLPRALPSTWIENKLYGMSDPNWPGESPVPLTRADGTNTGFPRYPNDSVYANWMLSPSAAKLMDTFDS

| Binder | Kd [1] [nM] | koff [1] [s⁻¹] | kon [1] [M⁻¹ s⁻¹] | Kd [3] [nM] | c-Ret phosphorylation at Y1016, EC50 (human c-Ret) [µg/mL] | other results |
| --- | --- | --- | --- | --- | --- | --- |
| E. coli-Δ31-N38Q-D95E-GDNF (SEQ ID NO: 9) (ligand, also called GDNF variant 2; clone D9) RGQRGKQRGCVLTAIHLNVTDLGLGYETKEELIFRYCSGSCDAAETTYDKILKNLSRNRRLVSEKVGQACCRPIAFDDDLSFLDDNLVYHILRKHSAKRCGCI | 0.047 | 0.00016 | 3.9e+06 |  |  |  |
| E. Coli-Δ31-GDNF (SEQ ID NO: 8) (ligand, The NdeI start codon encodes a Met before R32; also called Delta-31 GDNF; Variant 1) RGQRGKNRGCVLTAIHLNVTDLGLGYETKEELIFRYCSGSCDAAETTYDKILKNLSRNRRLVSDKVGQACCRPIAFDDDLSFLDDNLVYHILRKHSAKRCGCI | 0.044 | 0.00017 | 4.2e+06 |  |  |  |
| CHO-Δ31-N38Q-K84A-R88K-R90K-D95E-GDNF (SEQ ID NO: 12) (ligand, N-glycosylated at N49 (numbering of mature GDNF), Expressed in CHO cells; also called Δ31-N38Q-KAKKE; GDNF variant 3) RGQRGKQRGCVLTAIHLNVTDLGLGYETKEELIFRYCSGSCDAAETTYDKILANLSKNKRLVSEKVGQACCRPIAFDDDLSFLDDNLVYHILRKHSAKRCGCI | 0.029 | 0.00014 | 6.2e+06 | 0.029 | 0.008 to 0.015 | Kd [2]: 0.044 nM; koff [2]: 0.00042 s⁻¹; kon [2]: 9.6e+06 M⁻¹ s⁻¹; Kd [4]: 0.021 nM; koff [4]: 0.00021 s⁻¹; kon [4]: 9.9e+06 M⁻¹ s⁻¹ |
| CHO Δ31-N38Q-K84A-R88K-R90K-D95E-K125E-R130E GDNF (SEQ ID NO: 15) (ligand) RGQRGKQRGCVLTAIHLNVTDLGLGYETKEELIFRYCSGSCDAAETTYDKILANLSKNKRLVSEKVGQACCRPIAFDDDLSFLDDNLVYHILREHSAKECGCI |  |  |  |  | 0.008 to 0.015 |  |
| E. Coli-Δ31-N38Q-K84A-R88K-R90K-D95E-GDNF (SEQ ID NO: 12) (ligand, also called Δ31-N38Q-KAKKE; GDNF variant 3) RGQRGKQRGCVLTAIHLNVTDLGLGYETKEELIFRYCSGSCDAAETTYDKILANLSKNKRLVSEKVGQACCRPIAFDDDLSFLDDNLVYHILRKHSAKRCGCI | 0.035 | 0.00016 | 5e+06 |  |  |  |
| E. Coli-WT-GDNF (SEQ ID NO: 3) (ligand, Expressed in E. coli, not glycosylated; also called WT E. coli GDNF; WT-E. coli GDNF) MSPDKQMAVLPRRERNRQAAAANPENSRGKGRRGQRGKNRGCVLTAIHLNVTDLGLGYETKEELIFRYCSGSCDAAETTYDKILKNLSRNRRLVSDKVGQACCRPIAFDDDLSFLDDNLVYHILRKHSAKRCGCI |  |  |  | 0.064 | 0.008 to 0.015 | Kd [5]: 0.1 nM; koff [5]: 0.00026 s⁻¹; kon [5]: 2.4e+06 M⁻¹ s⁻¹; EC50 [6]: 0.3 to 0.4 nM; EC50 [7]: 0.4 nM; Kd [8]: 0.064 nM; koff [8]: 0.00035 s⁻¹; kon [8]: 6e+06 M⁻¹ s⁻¹; EC50 [9]: 0.3 to 0.4 nM |
